One molecule from US20250115663A1 (CELLDEX THERAPEUTICS, published 2025) can be followed below.

The target of assay [1] is T1, kappa-sCD40-Flag fusion protein, fragment amino acids 84-173 (human, UniProt P25942 104-193).
T1 construct: not shown: N-terminal human kappa light chain; C-terminal Flag tag
In words: ELISA, kappa-sCD40-Flag fragment captured on anti-Flag. As for the experimental part:
(§1) 1 μg/ml of purified kappa-sCD40-Flag fusion proteins or CHO cell supernatants containing the sCD40 fusion proteins were captured to microtiter plates that were pre-coated with 5 μg/ml mouse anti-Flag antibody (Sigma) in PBS and blocked with 5% bovine serum albumin in PBS. Following incubation with the CD40 antibody, the microplates were washed with PBS/Tween, and incubated with a goat anti-human IgG Fc polyclonal reagent conjugated to horseradish peroxidase. After washing, the plates were developed with HRP substrate, and analyzed at OD 450-650 using a microtiter plate reader. An ELISA with a goat anti-human IgG Fab2-HRP to measure kappa chain binding was carried out in parallel to validate the sCD40 fusion protein expression from different transfections.
In general terms: ELISA stands for enzyme-linked immunosorbent assay.

Assay [2] addresses T2, soluble human CD40-MsIgG2a (human, UniProt P25942).
T2 construct: soluble, fused to mouse IgG2a; also called recombinant human CD40-msG2a chimeric protein; CD40-MsIgG2a (Celldex, 60 kD by SDS-PAGE)
In words: BLI (Octet QKe), antibody captured on anti-human Fc (AHC) biosensors, analyte soluble human CD40-MsIgG2a 3.13 to 0.098 nM, 25 C, 1:1 fit; column head kdis(1/s). The procedure:
Purified antibodies from Example 1 were captured on Anti-Human Fc Capture (AHC) biosensors (Fortebio Product No. 18-5060). Each antibody was prepared in dilution buffer (10mMPO4+150 mM NaCl+1 mg/mL BSA+0.5% Tween 20, pH 7.2) to 0.5 μg/mL and loaded on freshly hydrated AHC biosensors for 35-50 sec at 25° C. and 1000 rpm plate shake speed to achieve a target response of 0.2 nm. Low levels of ligand were captured to limit any effects of mass transport of analyte on kinetic parameters. For one assay, eight biosensors were loaded with the same antibody.
Binding was determined by exposing six of the antibody loaded biosensors to analyte: soluble human CD40-MsIgG2a (Celldex, 60 kD by SDS-PAGE). Affinity measurements were determined using 2-fold serial dilutions of analyte ranging from 3.13 to 0.098 nM in dilution buffer at 25° C. and 1000 rpm plate shake speed. Association of the antibody loaded biosensors in analyte wells was carried out for 1200 seconds, the biosensors were then moved to dilution buffer wells for 2.5 hrs (9000 sec) for dissociation measurements.
Fortebio's Data Analysis Software version 8.2.0.7 (Pall ForteBio, Menlo Park, CA) was used in each case to derive kinetic parameters from the concentration series of analyte in dilution buffer binding to captured antibody. The association and dissociation curves were fitted to a 1:1 binding model using the data analysis software according to the manufacturer's guidelines.

The target in assay [3] is T3, kappa-sCD40(1-94)-Flag point mutant T4V (human, UniProt P25942 21-114).
T3 construct: not shown: N-terminal human kappa light chain; C-terminal Flag tag
T3 chain: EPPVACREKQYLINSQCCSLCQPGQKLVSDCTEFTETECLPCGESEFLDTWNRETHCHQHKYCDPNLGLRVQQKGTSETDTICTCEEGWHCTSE
Description: ELISA, mutated kappa-sCD40(1-94)-Flag captured on anti-Flag antibody, detection anti-human IgG Fc-HRP; the concentration axis is taken as that of 3C3. As for the experimental part:
as §1

Assay [4] addresses T4, kappa-sCD40(1-94)-Flag point mutant E36K (human, UniProt P25942 21-114).
T4 construct: not shown: N-terminal human kappa light chain; C-terminal Flag tag
T4 chain: T3 chain with V4T, E36K
Described as above. The procedure:
as §1

Assay [5] deals with T5, kappa-sCD40(1-94)-Flag point mutant E1G (human, UniProt P25942 22-114).
T5 construct: not shown: N-terminal human kappa light chain; C-terminal Flag tag
The assay is described as above. As for the experimental part: as §1

For assay [6], the target named is T6, kappa-sCD40(1-94)-Flag point mutant P2Q (human, UniProt P25942 21-114).
T6 construct: not shown: N-terminal human kappa light chain; C-terminal Flag tag
T6 chain: T3 chain with P2Q, V4T
The assay is described as above. The procedure:
as §1

Assay [7] addresses T7, kappa-sCD40(1-94)-Flag point mutant F34L (human, UniProt P25942 21-114).
T7 construct: not shown: N-terminal human kappa light chain; C-terminal Flag tag
T7 chain: T3 chain with V4T, F34L
Described as above. As for the experimental part: as §1

The target of assay [8] is T8, kappa-sCD40(1-94)-Flag point mutant E33A (human, UniProt P25942 21-114).
T8 construct: not shown: N-terminal human kappa light chain; C-terminal Flag tag
T8 chain: T3 chain with V4T, E33A
Described as above. The procedure: as §1

For assay [9], the target named is T9, kappa-sCD40(1-94)-Flag point mutant P3S (human, UniProt P25942 21-114).
T9 construct: not shown: N-terminal human kappa light chain; C-terminal Flag tag
T9 chain: T3 chain with P3S, V4T
Described as above. As for the experimental part:
as §1

For assay [10], the target named is T10, kappa-sCD40-Flag fusion protein, fragment amino acids 1-94 (human, UniProt P25942 21-114).
T10 construct: also called sCD40aa 1-94; not shown: N-terminal human kappa light chain; C-terminal Flag tag
Description: ELISA, kappa-sCD40(1-94)-Flag captured on anti-Flag antibody, detection anti-human IgG Fc-HRP; the concentration axis is taken as that of 3C3 (not said on the sheet). The procedure: as §1

Changes are numbered by the printed parent chain.

T1 sequence (P25942 104-193): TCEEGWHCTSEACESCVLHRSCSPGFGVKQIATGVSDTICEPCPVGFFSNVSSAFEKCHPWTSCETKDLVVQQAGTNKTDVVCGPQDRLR
T2 sequence (P25942 21-193 limits assumed): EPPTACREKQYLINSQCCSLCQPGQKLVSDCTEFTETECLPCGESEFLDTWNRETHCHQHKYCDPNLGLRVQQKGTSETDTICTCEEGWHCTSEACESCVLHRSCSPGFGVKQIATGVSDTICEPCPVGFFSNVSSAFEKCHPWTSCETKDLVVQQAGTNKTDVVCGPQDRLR

B1: anti-CD40 human monoclonal antibody 3C3 (antibody, human IgG2, kappa, V domains shown)
VH: QVQLVESGGGVVQPGRSLRLSCAGSGFIFSRYGMYWVRQAPGKGLEWVAVIWYDGSYKYYADSVKGRFTISRDNSKNTLYLQMNSLRAEDTAVYYCARESPWYYFDYWGQGTLVTVSS
VL: DIQMTQSPSSLSASVGDRVTITCRASQGISNYLAWYQQKPGKVPKLLIYAASTLQSGVPSRFSGSGSGTDFTLTISSLQPEDVATYYCQKYKSAPFTFGPGTKVDIKR
notes: Human IgG2, C-terminal lysine removed; also called anti-CD40 mAb 3C3; CD40 antibody 3C3
In the case of B1, the binding result in assay [1] is “no binding (tested: ~1 ug/ml fragment)”. Further, the off-rate constant (koff) in assay [2] was determined as 8.67e-06 s⁻¹. The “EC50 (read off the curve)” value in assay [3] is ~0.02 µg/mL; in [4], ~0.09 µg/mL; in [5], ~0.04 µg/mL; in [6], ~0.02 µg/mL; in assay [7], ~0.06 µg/mL; in assay [8], ~0.2 µg/mL. The “EC50 (read off the curve)” value in assay [9] was ~0.03 µg/mL; in [10] it was ~0.02 µg/mL.

The term koff denotes a measure of how fast the partners let go of each other. High values mean fast dissociation, low ones slow dissociation. As usually defined, the EC50 (read off the curve) is the concentration needed to bring the measured effect to its halfway point. A high value points to weaker potency.
